The text below walks through data of paper PMC11023358.

This assay concerns the target H2A.Z variant containing recombinant nucleosomes (UniProt P0C0S5). Description: pull-down; nucleosomes (2.5 μg) pre-bound to Dynabeads M-280 streptavidin; CFDP1 protein (10 μm) added; 4 h at 4°C; 20 mM Hepes pH 8.0, 150 mM NaCl, 0.2 mM EDTA, 20% glycerol, 0.1% NP40, 1 mM DTT; wash with 200 mM NaCl; immunoblot, normalized to H4. (A western blot detects proteins with antibodies after separation by electrophoresis.)

Consider “HIS tagged full-length CFDP1 protein (mouse craniofacial development protein 1) (from UniProt O88271 1-295) (natural protein)”, for which the fold binding over H2A canonical nucleosomes (normalized to H4 levels) is 3.3 fold.
